Test results as given in patent publication US7157568B1, “Human estrogen receptor-β” (American Home Products Corporation, priority 1997, dated 2007).

B1: hERβT: truncated human estrogen receptor-β lacking the first 45 amino acids (Clone 3) (protein, UniProt Q92731 46-530, looked up, fragment)
chain: MTFYSPAVMNYSIPSNVTNLEGGPGRQTTSPNVLWPTPGHLSPLVVHRQLSHLYAEPQKSPWCEARSLEHTLPVNRETLKRKVSGNRCASPVTGPGSKRDAHFCAVCSDYASGYHYGVWSCEGCKAFFKRSIQGHNDYICPATNQCTIDKNRRKSCQACRLRKCYEVGMVKCGSRRERCGYRLVRRQRSADEQLHCAGKAKRSGGHAPRVRELLLDALSPEQLVLTLLEAEPPHVLISRPSAPFTEASMMMSLTKLADKELVHMISWAKKIPGFVELSLFDQVRLLESCWMEVLMMGLMWRSIDHPGKLIFAPDLVLDRDEGKCVEGILEIFDMLLATTSRFRELKLQHKEYLCVKAMILLNSSMYPLVTATQDADSSRKLAHLLNAVTDALVWVIAKSGISSQQQSMRLANLLMLLSHVRHASNKGMEHLLNMKCKNVVPVYDLLLEMLNAHVLRGCKSSITGSECSPAEDSKSKEGSQNPQSQ
B2: hERβL: full-length human estrogen receptor-β of 530 amino acid residues, SEQ ID NO:2 (protein)
chain: MDIKNSPSSLNSPSSYNCSQSILPLEHGSIYIPSSYVDSHHEYPAMTFYSPAVMNYSIPSNVTNLEGGPGRQTTSPNVLWPTPGHLSPLVVHRQLSHLYAEPQKSPWCEARSLEHTLPVNRETLKRKVSGNRCASPVTGPGSKRDAHFCAVCSDYASGYHYGVWSCEGCKAFFKRSIQGHNDYICPATNQCTIDKNRRKSCQACRLRKCYEVGMVKCGSRRERCGYRLVRRQRSADEQLHCAGKAKRSGGHAPRVRELLLDALSPEQLVLTLLEAEPPHVLISRPSAPFTEASMMMSLTKLADKELVHMISWAKKIPGFVELSLFDQVRLLESCWMEVLMMGLMWRSIDHPGKLIFAPDLVLDRDEGKCVEGILEIFDMLLATTSRFRELKLQHKEYLCVKAMILLNSSMYPLVTATQDADSSRKLAHLLNAVTDALVWVIAKSGISSQQQSMRLANLLMLLSHVRHASNKGMEHLLNMKCKNVVPVYDLLLEMLNAHVLRGCKSSITGSECSPAEDSKSKEGSQNPQSQ
modifications: Human

How the values were obtained:
Assay type in all cases: cell-based
[1] = tested on: NFkB binding site reporter (3x-NFkB TK.LUC) in HepG2 cells; assay: NFkB-luciferase reporter assay in IL-1β-stimulated transfected HepG2 cells; conditions: IL-1β and estradiol
Experimental: FIG. 7A is a graphic illustration of the effect of estradiol stimulation of full-length hERβ (hERβL) and truncated hERβ (hERβT) on NFkB activation in HepG2 cells. Cells were transfected with either hERβL or hERβT and co-transfected with a luciferase reporter plasmid containing three copies of an NFkB binding site (3×-NFkB TK.LUC) and a control β-galactosidase plasmid. Cells were stimulated with interleukin-1β and incubated in the absence or presence of estradiol, after which luciferase activity was measured and normalized to β-galactosidase activity. FIG. 7B is a graphic illustration of luciferase activity in cells transfected with either hERβL or hERβT and co-transfected with a luciferase reporter plasmid lacking an NFkB binding site (TK.LUC).
In a separate experiment, HepG2 cells were transfected with hERβT or […] as above, but the reporter gene consisted of three copies of an NFkB binding site upstream of the TK basal promoter. Transfected cells were incubated with or without interleukin-1β (IL-1β) to activate NFkB and/or with estradiol prior to luciferase determination.

[2] = tested on: ERE-reporter gene in HAECT-1 cells; assay: ERE-luciferase reporter transactivation in HAECT-1 human endothelial cells; conditions: 100 nM 17-β estradiol overnight
Experimental: FIG. 8 is a graphic illustration of the transcriptional activation capacity of full-length hERβ (hERβL) and truncated hERβ (hERβT) expressed in HAECT-1 human endothelial cells. Cells were transfected with either hERβL or hERβT and co-transfected with a luciferase reporter plasmid containing an ERE (ERE.TK.LUC) or one lacking an ERE (TK.LUC). Cells were incubated in the absence or presence of estradiol, after which luciferase activity was measured. ERE TK.LUC values were normalized to TK.LUC values and are presented as mean±S.E. (n=4).
HAECT-1 cells (a clonal immortalized human aortic endothelia cell line derived by infection with Ad5 ori-SV40 ts A209) were transfected with pcDNA3hERβT or pcDNA3-hERβL and ERE-luciferase plasmids by electroporation. After 4 hours, the cells were treated overnight with or without 100 nM 17-β estradiol prior to luciferase activity measurements. […] In independent experiments, cells transfected under identical conditions were monitored for their levels of estrogen receptors using a ligand binding assay.

[3] = tested on: ERE-LacZ reporter (YRpE2) in S. cerevisiae strain BJ2168; assay: ERE-LacZ reporter assay in yeast; conditions: 17-β estradiol or Genistein for 3 hours
[4] = tested on: ERE (ERE.TK.LUC reporter) in HepG2 cells; assay: ERE-luciferase reporter transactivation in transfected HepG2 cells; conditions: in the presence of estradiol
Experimental: FIG. 6A is a graphic illustration of the transcriptional activation capacity of full-length hERβ (hERβL) and truncated hERβ (hERβT) expressed in HepG2 cells. Cells were transfected with either hERβL or hERβT and co-transfected with a luciferase reporter plasmid containing an estrogen response element (ERE) (ERE.TK.LUC) and a control β-galactosidase plasmid. Cells were incubated in the absence or presence of estradiol, after which luciferase activity was measured and normalized to β-galactosidase activity. FIG. 6B is a graphic illustration of luciferase activity in HepG2 cells transfected with either hERβL or hERβT and co-transfected with a luciferase reporter plasmid lacking an ERE (TK.LUC)
HepG2 cells (ATCC) were transfected in parallel with either pcDNA3-hERβL or pcDNA3-hERβT using the calcium phosphate co-precipitation method. Cells were co-transfected with a reporter plasmid containing a luciferase gene preceded by either an ERE upstream of the thymidine kinase (TK) basal promoter, or the TK basal promoter alone. […] Luciferase activity was measured by a chemiluminescent method using the Promega luciferase assay system, and β-galactosidase activity was measured by Galactolight (Tropix, Inc., Bedford Mass.); luciferase activity was then normalized to β-galactosidase activity.

Molecule | attenuation of IL-1β-mediated NFkB transcriptional activation [1] | activity in activating the ERE-reporter gene relative to hERβT [2] | maximal level of estrogen-stimulated LacZ expression relative to hERβT-transformed cells [3] [fold] | activity relative to hERβT (ERE activity) [4]
B1 | no inhibitory activity | – | – | –
B2 | capable of attenuating | 2–3 times | 2 | about 3 fold
